Assay results from PMC2948571.

Biological target: 40S-containing ribosomal complexes
Assay: co-sedimentation

- percent of 40S-ribosomal complexes associated with DHX29: 10%
B1: DExH-box protein DHX29 (enzyme)
chain: MGGKNKKHKAPGAAAVRAAVSASRAKSAEAAAAGEAQSKKPVARPPPAAAAGAREPRVKQGPKIYSFNSANDSGGPANVDKSILKVVINNKLEQRIIGVINEHKKQNNDKGMISGRLTAKKLQDLYMALQAFSFKTKDIEDAMTNTLLHGGDLHSALDWLCLNLSDDALPEGFSQEFEEQQAKSRPKFQAPQIQATISPPLQPKIKKQEEDPKIKPKKEDKNMEVNMKEWILQYAERQKEEEKSESSKSLEEEEKFDPNERYLHLAAKFLDAKEQAAAFKLEKNKQGQKEAQEKIRKFQREMETLEDHPVFNPAIKISYQQNERKKPPVATEGESSLNFNLFEKSAAPTEEEKDKKKEPHDVRNFDYTARSWTGKSPKQFLIDWVRKNLPKSPNPSFEKVPVGRYWKCRVRVIKSEDDVLVVCPAILTEDGMQAQHLGATLALYRLVKGQSVHQLLPPTYRDVWLEWSDAEKKKEELNKMETNKPRDLFIAKLLNKLKQQQQLQQQHSENKKENSEDPEESWENLVSEEDFSALSLESAVAEDLEPVRNLFRKLQSSPKYQRLLKERQQLPVFKHRESIVETLKRHRVVVVAGETGSGKSTQVPHFLLEDLLLNEWGTSKCNIICTQPRRISAVSLATRVCDELGCENGPGGRNSLCGYQIRMESRASESTRLLYCTTGVLLRKLQEDGLLSNVSHVIVDEVHERSVQSDFLLVILKEILQKRSDLHLILMSATVDSEKFSTYFTHCPILRISGRSYPVEVFHLEDIIEETGFVLEKDSEYCQKFLEEEEEITINVTSKAGGIKKYQEYIPVQTGTTADLNPLYQKYSNRTQHAILYMNPHKINLDLILELLVYLDKSPQFRNIEGAVLIFLPGLAHIQQLYDLLSNDRRFYSERYKVIALHSILSTQDQAAAFTLPPPGVRKIVLATNIAETGITIPDVVFVIDTGRTKENKYHESSQMSSLVETFVSKASALQRQGRAGRVRDGFCFRMYTRERFEGFMDYSVPEILRVPLEELCLHIMKCNLGSPEDFLSKALDPPQLQVISNAMNLLRKIGACELNEPKLTPLGQHLAALPVNVKIGKMLIFGAIFGCLDPVATLAAVMTEKSPFTTPIGRKEEADLAKSALAIADSDHLTIYNAYLGWKKAQQEGGYRSELAYCRRNFLNRTALLTLEDVKQELMKLVKAAGFSSTTSNNWEGNRASQTLSFQEIALLKAVLAAGLYDNVGKIIYTKSVDVTEKLACIVETAQGKAQVHPSSVNRDLQTYGWLLYQEKIRYARVYLRETTLITPFPVLLFGGDIEVQHRERLLSIDGWIYFQAPVKIAVIFKQLRVLIDSVLRKKLENPKMSLENDKILQIITELIKTENN
